Measurements published in the supplement of paper PMC10126150.
± gives the standard deviation of the averaged measurements.
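Note: ATP exposure 15 min at 22 °C before imaging.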

What follows are sequences tested on ATP (assay: switch fluorescence ratio, 500 uM ATP over buffer (Cy3 cluster intensity, sum of 5 cycles each) (fold (ratio)); higher = stronger signal-on switching upon ATP binding; sequences stand for … in TCGTCGGCAGCGTCAGATGTGTATAAGAGACAGTTTTTTTTTTTTTTTTTTTTTTTTT…TC). Conditions: aptamer strand: ATP DNA aptamer (quencher-CACCTGGGGGAGTATTGCGGAGGAAGG + anchor), 100 nM annealed; ATP concentration: 500 uM.
Outline: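 Values give the fluorescence ratio for each switch-domain sequence, averaged from per-cluster ratios of summed target-cycle to summed buffer-cycle Cy3 intensity. The Cy3-labelled switching-strand clusters sat on a modified Illumina MiSeq flow-cell, were annealed to 100 nM quencher-labelled ATP aptamer, and were imaged in selection buffer, then after 15 min with 500 uM ATP at 22 °C. Five cycles ran with NaOH stripping and re-annealing between them, and clusters outside 100-1000 RFU were excluded.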
In the case of TTTATTCTCT, the switch fluorescence ratio is reported as 1.01 ± 0.019. Work on AATGTTATGG yielded a switch fluorescence ratio of 0.9801 ± 0.0031. With GGATGGTAGT the switch fluorescence ratio was 1.01 ± 0.071. ATAATAGAAT gave a switch fluorescence ratio of 0.993 ± 0.025. Sequence TTATAGGGCG has a switch fluorescence ratio of 1.02 ± 0.047. Work on CATTTCAGGT yielded a switch fluorescence ratio of 1.03 ± 0.069. For TAAGTGAGGT, the switch fluorescence ratio was 0.99677 ± 0.00077. Work on TCGAGCTAAT yielded a switch fluorescence ratio of 1.41 ± 0.11. Sequence GGCGGGGGGC has a switch fluorescence ratio of 0.986 ± 0.026. With GGGAGCACTA the switch fluorescence ratio was 1.09 ± 0.017. For TTGTATGTCT, the switch fluorescence ratio was 0.991 ± 0.044. For AAGCATAGGT, the switch fluorescence ratio was 0.995 ± 0.018. GATTCTTGTT was tested, and the switch fluorescence ratio was 1.02 ± 0.046. For CTATGTGTCA, the switch fluorescence ratio was 0.977 ± 0.05. In the case of GGCATCAGGG, the switch fluorescence ratio is reported as 1.02 ± 0.013. TCGAAGGTTT was tested, and the switch fluorescence ratio was 1.01 ± 0.029. With TAGAGCAGCT the switch fluorescence ratio was 1.03 ± 0.021. TTAGTTATAC showed a switch fluorescence ratio of 1.78 ± 0.59. AGGGTTTGTG was tested, and the switch fluorescence ratio was 1.11 ± 0.037. In the case of TATTTGTGTC, the switch fluorescence ratio is reported as 0.982 ± 0.057. GGAGGTGTGT was tested, and the switch fluorescence ratio was 1.02 ± 0.021. Sequence TATCATAGCC has a switch fluorescence ratio of 1.02 ± 0.027. GGGATAATGG showed a switch fluorescence ratio of 0.968 ± 0.032. With CGGTTTTTAG the switch fluorescence ratio was 1.01 ± 0.044. Work on TCACATGGGA yielded a switch fluorescence ratio of 0.976 ± 0.011. TGGTGAAAGT gave a switch fluorescence ratio of 0.982 ± 0.025. AGGTTAGTGG gave a switch fluorescence ratio of 1.015 ± 0.01. GTGGGATAGG was tested, and the switch fluorescence ratio was 0.985 ± 0.038. TCTGAAATAA showed a switch fluorescence ratio of 1.08 ± 0.048. GGGTTTGCGA was tested, and the switch fluorescence ratio was 1.02 ± 0.048. Sequence TTTATTTGAC has a switch fluorescence ratio of 1.03 ± 0.053. TTTTTTGTTG showed a switch fluorescence ratio of 0.987 ± 0.029. Work on CGAACTTGGA yielded a switch fluorescence ratio of 0.9882 ± 0.0074. GAGGGTGTCA showed a switch fluorescence ratio of 0.995 ± 0.017. Sequence TCTTTGGGGA has a switch fluorescence ratio of 1.04 ± 0.04. GGCTACGGCG showed a switch fluorescence ratio of 0.993 ± 0.016. AGAGTATTAA gave a switch fluorescence ratio of 0.9824 ± 0.004. For CGCCGTTGCG, the switch fluorescence ratio was 0.989 ± 0.065. In the case of ATTATAGGGG, the switch fluorescence ratio is reported as 0.986 ± 0.0017. In the case of GGTTGACGCA, the switch fluorescence ratio is reported as 1.01 ± 0.03. Work on TCGGTGTCGG yielded a switch fluorescence ratio of 0.98 ± 0.037. With CCGGCTAGTG the switch fluorescence ratio was 1.03 ± 0.034. In the case of CAACCGAGGC, the switch fluorescence ratio is reported as 1.18 ± 0.028. TGTTTTCCCC showed a switch fluorescence ratio of 1.02 ± 0.028. Sequence GAAATTCGGG has a switch fluorescence ratio of 0.978 ± 0.025. AGGGGAGACC gave a switch fluorescence ratio of 0.9775 ± 0.0096. With GGAAAAATGT the switch fluorescence ratio was 1.01 ± 0.025. For ATTATGGTCG, the switch fluorescence ratio was 0.999 ± 0.084. Work on GAATTGGAAG yielded a switch fluorescence ratio of 0.968 ± 0.025. Work on TATTTTGTAT yielded a switch fluorescence ratio of 1 ± 0.019. Work on TACATTCGCG yielded a switch fluorescence ratio of 1.01 ± 0.035. AACTTGGTGG was tested, and the switch fluorescence ratio was 0.944 ± 0.033. TAAGAATGTT was tested, and the switch fluorescence ratio was 0.977 ± 0.0098. With GTCTAAACTT the switch fluorescence ratio was 1.01 ± 0.013. Sequence ATGATAATGT has a switch fluorescence ratio of 0.985 ± 0.014. For CTGGTCACAG, the switch fluorescence ratio was 1 ± 0.024. For CGGGTTAAAA, the switch fluorescence ratio was 0.9714 ± 0.0034. Work on GGTGTAGGTG yielded a switch fluorescence ratio of 0.9851 ± 0.0098. In the case of AGCTTGTCGG, the switch fluorescence ratio is reported as 1.01 ± 0.025. In the case of TACTTGTTTC, the switch fluorescence ratio is reported as 1.01 ± 0.027. For AATTGAGTAT, the switch fluorescence ratio was 1.01 ± 0.015. TTGGAGTTTT gave a switch fluorescence ratio of 1.01 ± 0.038. With TTTAATGCG the switch fluorescence ratio was 1.01 ± 0.025. TCCTGAGTAA was tested, and the switch fluorescence ratio was 1.55 ± 0.25. Work on ATGGTTTACG yielded a switch fluorescence ratio of 1.05 ± 0.077. In the case of GGTCTTGTGG, the switch fluorescence ratio is reported as 0.993 ± 0.032. In the case of CGGGGATTTG, the switch fluorescence ratio is reported as 0.976 ± 0.032. TTTTGTTATG showed a switch fluorescence ratio of 0.9903 ± 0.0085. GGGGGTTGAC showed a switch fluorescence ratio of 1.01 ± 0.027. Work on TCATGGATTT yielded a switch fluorescence ratio of 1.01 ± 0.026. AGTAAGGGGG showed a switch fluorescence ratio of 0.998 ± 0.035. Work on TATTGGGGGG yielded a switch fluorescence ratio of 0.999 ± 0.025. AACCTCTCAT was tested, and the switch fluorescence ratio was 1.08 ± 0.011. CGGTTATACT was tested, and the switch fluorescence ratio was 1.25 ± 0.021. With GGATACTAGT the switch fluorescence ratio was 1.04 ± 0.069. TGATTTTTGT showed a switch fluorescence ratio of 0.997 ± 0.021. GGGTGGAAGC gave a switch fluorescence ratio of 1.02 ± 0.018. In the case of TGGGGGGCAG, the switch fluorescence ratio is reported as 0.969 ± 0.017. Sequence ATGATTTACT has a switch fluorescence ratio of 1.02 ± 0.02. Sequence AGGGTTAGTG has a switch fluorescence ratio of 0.979 ± 0.012. ATTGTGCGAC gave a switch fluorescence ratio of 1 ± 0.021. CGGGGATTTC gave a switch fluorescence ratio of 1 ± 0.027. In the case of AAATTCCGTG, the switch fluorescence ratio is reported as 0.978 ± 0.043. With GAGGATGATC the switch fluorescence ratio was 1.01 ± 0.032. Work on TTAAGGCTAA yielded a switch fluorescence ratio of 1.03 ± 0.038. AAAGAAGGGC was tested, and the switch fluorescence ratio was 0.938 ± 0.05. Sequence TTTTTGGCCG has a switch fluorescence ratio of 1.06 ± 0.034. ATTGCCCGTT gave a switch fluorescence ratio of 1.09 ± 0.21. With GCGGTGAGAA the switch fluorescence ratio was 0.983 ± 0.028. TTTAAGCTGG was tested, and the switch fluorescence ratio was 0.99 ± 0.017. CAGTCTGCTC showed a switch fluorescence ratio of 1.05 ± 0.03. For ATTGTGCCGA, the switch fluorescence ratio was 0.972 ± 0.011. For TGGTGGGTGC, the switch fluorescence ratio was 1.04 ± 0.044. ATATAAGAAA showed a switch fluorescence ratio of 1.03 ± 0.041. With GAGGCTTTTT the switch fluorescence ratio was 0.979 ± 0.024. TTGTCTGTCC was tested, and the switch fluorescence ratio was 0.98 ± 0.018. With AGGGGACTTG the switch fluorescence ratio was 1.01 ± 0.06. In the case of AGGGGGCCGT, the switch fluorescence ratio is reported as 0.982 ± 0.042. Work on GCGAGGGGCT yielded a switch fluorescence ratio of 0.9717 ± 0.0031. AGCAACCCCT gave a switch fluorescence ratio of 1.81 ± 0.022. In the case of TTTTCAAGTT, the switch fluorescence ratio is reported as 1.21 ± 0.38. ACCTGCGGGG gave a switch fluorescence ratio of 1.01 ± 0.023. TTTTTTAGTC was tested, and the switch fluorescence ratio was 1 ± 0.04. Work on ATTTTCTTCA yielded a switch fluorescence ratio of 1.02 ± 0.016. In the case of TTTAAATTTG, the switch fluorescence ratio is reported as 1.018 ± 0.0054. Sequence GTTTTAGTCA has a switch fluorescence ratio of 0.9989 ± 0.001. Work on TTTCGAAACT yielded a switch fluorescence ratio of 1 ± 0.038. For AGTGTCCAGT, the switch fluorescence ratio was 1 ± 0.028. Sequence CGCCAAATG has a switch fluorescence ratio of 1.033 ± 0.0019. In the case of TCGCAGGATA, the switch fluorescence ratio is reported as 1.08 ± 0.012. Sequence GCTCCAATTT has a switch fluorescence ratio of 1.07 ± 0.034. In the case of GCAGGCCACA, the switch fluorescence ratio is reported as 1.11 ± 0.065. Work on GGGGCGGGGA yielded a switch fluorescence ratio of 0.996 ± 0.045. In the case of CATAATGGTG, the switch fluorescence ratio is reported as 1.02 ± 0.013. GTTGGCAGTG was tested, and the switch fluorescence ratio was 0.978 ± 0.033. CGTTACTAAC was tested, and the switch fluorescence ratio was 1.12 ± 0.02. In the case of GAATTAAATG, the switch fluorescence ratio is reported as 1.037 ± 0.0019. Sequence TCTTGGCACA has a switch fluorescence ratio of 1.036 ± 0.0061. ACGCCGGGGG gave a switch fluorescence ratio of 1.01 ± 0.031. For TTGGGGATGA, the switch fluorescence ratio was 1.01 ± 0.016. GATTTTTGCC gave a switch fluorescence ratio of 1.01 ± 0.031. GGGTATACGG was tested, and the switch fluorescence ratio was 0.982 ± 0.086. Sequence ATTGGCGTGC has a switch fluorescence ratio of 0.987 ± 0.03. TATTAAACTC showed a switch fluorescence ratio of 1.02 ± 0.017. Sequence TCGCTCATGG has a switch fluorescence ratio of 1.03 ± 0.015. With GCACATAGCT the switch fluorescence ratio was 1.01 ± 0.025. TAAATCGGCA gave a switch fluorescence ratio of 1.004 ± 0.0021. GGTTGGTCTA showed a switch fluorescence ratio of 0.979 ± 0.028. TTTTGGCCTA gave a switch fluorescence ratio of 1.01 ± 0.029. Sequence TGTGTTTTT has a switch fluorescence ratio of 0.992 ± 0.038. With TGATGTGGGA the switch fluorescence ratio was 1.027 ± 0.0047. In the case of AACCAGAAGG, the switch fluorescence ratio is reported as 1.01 ± 0.035. For TGTTAGGGAG, the switch fluorescence ratio was 0.987 ± 0.03. CCTTTTTCTT was tested, and the switch fluorescence ratio was 1.04 ± 0.029. GTTAATTGGG showed a switch fluorescence ratio of 0.953 ± 0.037. ATTATGAGTA was tested, and the switch fluorescence ratio was 0.9727 ± 0.0091. With AAGTACTATC the switch fluorescence ratio was 1.26 ± 0.025. In the case of GCAGGCAACT, the switch fluorescence ratio is reported as 0.995 ± 0.018. Work on TGTCGGGATG yielded a switch fluorescence ratio of 1.01 ± 0.022. In the case of GATGGAGTTG, the switch fluorescence ratio is reported as 1.013 ± 0.0053. Work on TTAGTGATCT yielded a switch fluorescence ratio of 0.998 ± 0.015. For GGTTTGCGTG, the switch fluorescence ratio was 0.988 ± 0.0043. TTTCTGGGGT was tested, and the switch fluorescence ratio was 1.01 ± 0.054. Work on TTTGGCGCAC yielded a switch fluorescence ratio of 1.06 ± 0.015. Work on CTGTGTGTTA yielded a switch fluorescence ratio of 0.9816 ± 0.0036. Sequence TAAGTATGTT has a switch fluorescence ratio of 1.002 ± 0.0031. CGGGCCACGT gave a switch fluorescence ratio of 0.997 ± 0.034. Work on CGGTACCGTT yielded a switch fluorescence ratio of 1.02 ± 0.049. GCATAGCCTG showed a switch fluorescence ratio of 0.98 ± 0.034. CGATGGTGGG showed a switch fluorescence ratio of 0.987 ± 0.0088. AAGGAAGGAG showed a switch fluorescence ratio of 1.03 ± 0.038. With TTATTAATAC the switch fluorescence ratio was 1.177 ± 0.0012. With CGCATGGCCT the switch fluorescence ratio was 1.04 ± 0.072. Sequence AGGTTAATTG has a switch fluorescence ratio of 0.9909 ± 0.0072. With GGGCAAAATC the switch fluorescence ratio was 1.04 ± 0.018. Work on TGTGTTTTGG yielded a switch fluorescence ratio of 0.99 ± 0.027. For GATATGGCAC, the switch fluorescence ratio was 1.05 ± 0.042.
